According to patent US20210024625A1 (published 2021):

T1: PfRH5 from Plasmodium falciparum strain 3D7 (Plasmodium falciparum, UniProt Q8IFM5 25-526)
T1 sequence: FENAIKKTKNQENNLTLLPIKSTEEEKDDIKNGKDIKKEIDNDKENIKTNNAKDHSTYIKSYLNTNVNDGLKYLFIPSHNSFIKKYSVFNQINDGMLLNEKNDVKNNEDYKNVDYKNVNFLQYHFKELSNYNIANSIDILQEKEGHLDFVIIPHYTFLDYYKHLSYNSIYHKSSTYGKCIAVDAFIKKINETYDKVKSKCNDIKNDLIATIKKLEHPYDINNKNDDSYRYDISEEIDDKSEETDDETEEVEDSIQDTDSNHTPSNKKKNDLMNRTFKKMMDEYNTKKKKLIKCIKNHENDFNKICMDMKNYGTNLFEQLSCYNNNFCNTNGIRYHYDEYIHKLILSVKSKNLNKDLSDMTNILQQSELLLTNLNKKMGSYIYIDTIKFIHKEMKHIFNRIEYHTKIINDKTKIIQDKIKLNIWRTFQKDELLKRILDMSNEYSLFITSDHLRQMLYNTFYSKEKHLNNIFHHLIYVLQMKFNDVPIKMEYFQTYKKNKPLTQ


What was measured:
Assay in all cases: cell-based or functional assay
[1] = target: PfRH5 from Plasmodium falciparum strain FCR-1/FVO (Plasmodium falciparum)
[2] = target: PfRH5 from Plasmodium falciparum strain Cam3.II (Plasmodium falciparum)
[3] = target: PfRH5 from Plasmodium falciparum strain W2-mef (Plasmodium falciparum)
[4] = target: PfRH5 from Plasmodium falciparum strain D10 (Plasmodium falciparum)
[5] = target: PfRH5 from Plasmodium falciparum strain Dd2 (Plasmodium falciparum)
[6] = target: T1, PfRH5 from Plasmodium falciparum strain …
[7] = target: PfRH5 from Plasmodium falciparum strain HB3 (Plasmodium falciparum)
[8] = target: PfRH5 from Plasmodium falciparum strain 7G8 (Plasmodium falciparum)
[9] = target: PfRH5 from Plasmodium falciparum strain RF7 (Plasmodium falciparum)

| Binder | Max growth inhibition (%) [1] [%] | Max growth inhibition (%) [2] [%] | Max growth inhibition (%) [3] [%] | Max growth inhibition (%) [4] [%] | Max growth inhibition (%) [5] [%] | Max growth inhibition (%) [6] [%] | Max growth inhibition (%) [7] [%] | Max growth inhibition (%) [8] [%] | Max growth inhibition (%) [9] [%] |
| --- | --- | --- | --- | --- | --- | --- | --- | --- | --- |
| H1H29138P (antibody, V domains shown) VH: QVQLVESGGGVVQPGRSLRLSCAASGFTFSTYGMHWVRQAPGKGLEWVAVIWYDGTNKYYADSVKGRFTISRDNSKNTLYLQMISLRAEDTAVYYCARDPSGGDHYYYYGMDVWGQGTTVTVSS VL: DIQMTQSPSSLSASVGDRITITCQASQDISNYLNWYQQKPGKAPNLLISDASDLETGVPSRFSGSGSGTDFTFTISSLQPEDFATYYCQQYDNIPITFGQGTRLEIKR | 84.1 | 48.7 | 66.4 | 57.1 | 74.4 | 58.5 | 51.4 | 57.4 | 51.4 |
| H1H29192P2 (antibody, V domains shown) VH: QVQLVQSGAEVKKPGASVRVSCMASGYTFTGYYMHWVRQAPGQGLEWMGWINPNSGGTKYAQKFQGRVTMTRDTSISTAYMELSRLRSDDTAVYYCAREEVDDFWSGYLDYWGQGTLVTVSS VL: not shown | 15.1 | -3.38 | 4.35 | 8.7 | -15.2 |  | 5.62 | 12.4 | -7.69 |
| H1H29163P2 (antibody, V domains shown) VH: QVQLVQSGAEVKKPGASVKVSCKTSGYTFTAYYIHWVRQAPGQGLEWMGWINPNNGDTNYALRFQGRVTMTRDMSINTAYMELRGLRSDDTAVYYCARDDLAAAGIGWFDSWGQGTLVTVSS VL: not shown | 64.5 | 46.7 | 63.7 |  | 61.2 | 55.6 | 56.5 | 62.6 | 10.7 |
| H1H29141P (antibody, V domains shown) VH: QVQLVESGGGVVQPGRSLRLSCAASGFTFSSYGMHWVRQAPGKGLEWVTFISFDERNKYYADSVKGRFTISRDNSKNTLYLQMNSLRAEDTAMYYCASEVGYSFGHDAFDIWGQGTMVTVSS VL: not shown | 74.2 | 49.3 | 56.2 | 50 | 65.3 | 48.2 | 50 | 54.6 | 32.1 |
| H1H29196P2 (antibody, V domains shown) VH: EVQLVESGGDLVQPGGSLRLSCAASGFAVNGDYFSWVRQAPGKGLEWISVIYSSGNTYYADSVKGRFTISRHNSKNTLYLQMSSLRPEDTAVYYCARDFPPMSGADYWGQGTLVTVSS VL: not shown | 21.9 | 6.09 | 17 | 14.3 | -1.65 |  | 26.8 | 23.4 | 3.78 |
| H1H29207P2 (antibody, V domains shown) VH: EVQLVESGGGLVQPGGSLRLSCAASGFTFSSYAMNWVRQAPGKGLEWVSAVSGSADITNYADSVKGRFTISRDNSKHTLYLQMNSLRAEDTAVYYCAKDKVYNWNYGIYYGMDVWGQGTTVTVSS VL: not shown | 69.2 | 45.3 | 65.2 | 73.9 | 61.3 |  | 49.3 | 58.7 | 31.1 |
| H1H29215P2 (antibody, V domains shown) VH: QVQLQQWGAGLLKPSETLSLTCAVSDESFSDYYWTWIRQPPGKGLEWIGEITHSGSTHYNPSLKSRVTLSVDTSKNHFSLSLNSVTAADTAIYYCARGGDYGGLLDYWGQGTLVTVSS VL: not shown | 54 | 27.2 | 37.2 | 35.8 | 22.8 |  | 30.1 | 33.2 | 11.3 |
| H1H29125P (antibody, V domains shown) VH: QVQLVESGGGVVQPGRSLRLSCAASGFTFSSYGMHWVRQAPGKGLEWMAVISYDGSNKYYADSVKGRFTISRDNSKNTLFLQMNSLRPEDTAVYYCAQDGSSAIYYFYGMDVWGQGTTVTVSS VL: DIQMTQSPSSLSASIGDRVTITCRASQDINNYLAWFQQKPGKAPKSLIYAASSLQSGVPSKFSGSGSGTDFTLTISSLQPEDFATYYCLQYNSYHPTFGQGTKLEIKR | 67.6 | 42.7 | 64.6 | 75.4 | 51.4 | 51.1 |  | 47 | 21 |
| H1H29198P2 (antibody, V domains shown) VH: QVQLVQSGAEVKKPGASVKVSCKVSGYTLTELSMHWVRQAPGKGLEWMGGFDPEHGKIIYAQKFQGRVTMTEDTSTDTAYMELSSLRSEDTAVYYCATFYNWNSYYFGMDVWGHGTTVTVSS VL: not shown | 11.1 | 14.7 | -3.61 | 4.38 | 10.1 |  | 15.5 | 5.31 | 1.53 |
| H1H29146P2 (antibody, V domains shown) VH: EVQLVESGGGLVQPGGSLQLSCAASGFAFSDSAIYWVRQASGKGLEWVGRIRNKANRFATAYGASVKGRFSIHRDDSKNTAYLQMNSLKTEDTAVYYCARHGHDTLTEGYGMDVWGQGTTVTVSS VL: not shown | 7.32 | 8.18 | 0.57 | 10.8 |  | 8.57 | 33.9 | 19.1 | 5.97 |
| H1H29209P2 (antibody, V domains shown) VH: QLQLQESGPGLVKPSETLSLTCTVSGGSISSRSHYWGWIRQPPGKGLEWIGSIYYSGSTYYNPSLKSRVTISVDTSKNQFSLKLSSVTAADTAVYYCARLGWYAEEAFEIWGQGTMVTVSS VL: not shown | 19.2 | 47.3 | 39.6 | 72.7 | 38.1 |  | 52.4 | 49.9 | 11.9 |
| H1H29214P2 (antibody, V domains shown) VH: QLQLQESGPGLVKPSETLSLTCTVSGGSISSSSYYWGWIRQPPGKGLEWIGSIYYSGSTYYNPSLKSRVTISVDTSKNQFSLKLSSVTAADTAVYYCARQGRWERENFDYWGQGTLVTVSS VL: not shown | 13.1 | 46.7 | 52.7 | 76.5 | 47.2 |  | 59.1 | 56.7 | 11.2 |
| H1H29149P2 (antibody, V domains shown) VH: QVQLQESGPGLVKPSQTLSLTCTVSGGSISSGGYYWNWIRQHPGKGLEWIGYIYYSGSTYYNPSLKSRVTISVDTSKNQFSLKLGSVTAADTAVYYCARAPPYNWFDYWGQGTLVTVSS VL: not shown | 58 | 36.2 | 42.8 | 66 |  | 44.1 | 40 |  | 14.7 |
